From the DeepSol protein solubility set

Assay: soluble on expression in E. coli; label from the status in PepcDB or PDB records

Sequence	soluble on expression in E. coli
MGSDKIHHHHHHMKTVNVHGFEASSKEEFQVIQSSLVKRIKLISDFKEEDIKLCAGVDLAYWTKGEKQYGVCCIIVIDYNTGEIIEKAYDYGEIEVPYMPGFLAFRELPLVIKTVKKLKNEPDIFMFDGNGYLHYNHMGIATHASFFLNKPTIGVAKSYLKVAGVDFEMPESFEGAFKDIVINEEVYGRVLRTKKDVKPIFVSCGNYIDLETCTKICSKLINNDSRLPITVRLADLETHKRRSELS	not soluble
MGSDKIHHHHHHMKVFDVHKFDMKKEQDFLQVQFNLKNRINLSPTIHPDSINTGAGVDLAYWEQDGEPYGVCCIIVIDADTKEVIEKVHSMGRISVPYVSGFLAFRELPLIIEAAKKLETEPDVFLFDGNGYLHYNHMGVATHAAFFLGKPTIGIAKTYLKIKGCDFVTPEIEVGAYTDIIIDGEVYGRALRTRRDVKPIFLSCGNYIDLDSSYQITMSLINQESRLPIPVRLADLETHVLRTFYQKNHV	not soluble
MGSDKIHHHHHHMKVNLDYLGRLFTENELTEEERQLAEKLPAMRKEKGKLFCQRCNSTILEEWYLPIGAYYCRECLLMKRVRSDQTLYYFPQEDFPKQDVLKWRGQLTPFQEKVSEGLLQVVDKQKPTLVHAVTGAGKTEMIYQVVAKVINAGGAVCLASPRIDVCLELYKRLQQDFSCGIALLHGESEPYFRTPLVVATTHQLLKFYQAFDLLIVDEVDAFPYVDNPMLYHAVKNSVKENGLRIFLTATSTNELDKKVRLGELKRLNLPRRFHGNPLIIPKPIWLSDFNRYLDKNRLSPKLKSYIEKQRKTAYPLLIFASEIKKGEQLAEILQEQFPNEKIGFVSSVTEDRLEQVQAFRDGELTILISTTILERGVTFPCVDVFVVEANHRLFTKSSLIQIGGRVGRSMDRPTGDLLFFHDGLNASIKKAIKEIQMMNKEAGL	not soluble
MGSDKIHHHHHHMKVQFLGAARTVTGSCYVVESGGVRFAVDCGMHQGNHEIEKRNYETDVYSPETIDFFLITHAHIDHTGLLPRMVRDGFTGPVYCTEPTRDLLEIMLQDSANIQEMEAEWQTRKQKRKGRKPVDPLYTFADAARVSRFFENVEYNRPFSPVEGVTVTYKDAGHILGSAFLEIEVCEHGRCSRLIFSGDLGKPNSLIVRDPEAAAAADYLFVESTYGDRNHKDESNSRQELAEAIAYSYRQGEKVIIPAFAVERTQEVLYTLFLLQKEGRMPVDMPIFLDSPLAIRATEIFRKHPRFFDEEMQKLLLSGEDPFAMPSLRLTTKTQESQAINNYTGPAVIISASGMCNAGRIKHHLRHNIWRPGASIVFVGYQAVGTPGRRIVDGARSIRLFGEEIAIQAKVFTIGGFSGHAGQSQILDWVGKFATKEMKVFLVHGEEKAQQALKAILEEKYELSVHSPGYLEEIELEPGEAVVTTGDPQRYQPQLNWDFLLSETEARMMQLRARKGDIEHADWAQQVEIRDRLLELNNEMLGILSEL	not soluble
MGSDKIHHHHHHMKVQYSFEREFEELMSDLLSKYGYEMFQMDGLGDQLDVVKFTEDFVRRGIIESTIDANANVRVTNISTYFIEISKPHTYLYSLYRIWQKMKEMFGKGVADEFVEAQINGAVYLHDRHHAALMPYCFAYTLKPIVEKGLPFIKTIKSEPAKHLSTFIQHVIQFVMFASNQSSGAVGLPDFFVWMWYFVKKDLKEGIIPRDKLDWYIEQHFQILTYSLNQPIRTTQSPYTNFTYLDRNYIKAIFEGERYPDGSLITDHVEDIIALQKHYWEWVSRERERQMFTFPVLTASLLYKDGKFLDEDSARFINKINMKWQDTNWYISDSIDAVASCCRLTSSTQTLKKFSLSSEEEEKLKGRMNSIGGSDLNIGSFKVITVNLPRIALESGGDREKYLQILRHRVQLIKKALAAVREIIKERISEGLLPLYENGLMLLNRQYGTIGVTGVWESASIMGLTTEDIDGLKYTEEGEVFVDNVLDTIREEAEKGYHEYGFTFNIEQVPAEKAAVTLAQKDRFLFGEKQPFEIYSNQWVPLMANTDVLNRIRYSGKWDKKVSGGAILHINLGESFKTEEESFNMVKMIADMGVMYFAFNTKISVCEDGHAFYGERCPVCGKAKVDEYMRIVGYLVPVSAFNKERREIEYPRRQFYDSLTIRR	not soluble
MGSDKIHHHHHHMKVSTISIDLAKNVFQLLGMDKHAKQVFSKRLNRTQLSEFMSQQPVCDVVFEACYSSHYWGRKFLAMGHNVKLIPAQHVTPFVRGSKNDKNDAMAIYEANFRPNIRFVPIKTEAQQEILMLHRVRERLVKQRTACTNQIRGVLVDFGICFPQGHSAFERAMWDIINDESQRPIIKLMANDFWDEYQTVSTRLDRINRLIKQLVEQDPNGKILLSIPGVGPIIASAFAAAIGAGQAFNSAKELAVWLGLTPQQFASGNKSINGSITKRGDGYLRKQLIHGARTVVSHASKKNDDLNQWITQLRNRKSICTTVVATAHRLARLMWILLHKQVPYAPQYGAYQGISHEAN	not soluble
MGSDKIHHHHHHMKVVAVGGGTGLSTLLKGLKNIDSFEITAVVSVTDEGGSSGKLRKELNVPPPGDVRNNIVALAKDEDLLAKLMSYRFSEGSFKGHSLGNLIIAALTKIEGSFSEAIRILERVLAIKGRVLPVSEDHARLVARFEDGEEVIGETNIVRKGGKIVEVRLDRPIDALPEVLEAIERADIIIFGPGSLYTSIITNVLVNGVKDAIKKSKAKKIYVCNLMTQPGETTGYRVSDHVKELERYLEQSVDFVLVNTRKPSEEVLERYRKEGSDFVEIDAENIQNTILAEPFLVEIVDPSDGQRKIRHDSVKLADVIERISRW	not soluble
MGSDKIHHHHHHMKVVTFGEIMLRLSPPDHKRIFQTDSFDVTYGGAEANVAAFLAQMGLDAYFVTKLPNNPLGDAAAGHLRKFGVKTDYIARGGNRIGIYFLEIGASQRPSKVVYDRAHSAISEAKREDFDWEKILDGARWFHFSGITPPLGKELPLILEDALKVANEKGVTVSCDLNYRARLWTKEEAQKVMIPFMEYVDVLIANEEDIEKVLGISVEGLDLKTGKLNREAYAKIAEEVTRKYNFKTVGITLRESISATVNYWSVMVFENGQPHFSNRYEIHIVDRVGAGDSFAGALIYGSLMGFDSQKKAEFAAAASCLKHTIPGDFVVLSIEEIEKLASGATSGRVER	soluble
MGSDKIHHHHHHMKYLPLGSTGLTVSECGFGCIPIIRLPQDEAVRVLRHAFDRGITFFDTANAYRDSEEKMGIAFAGIRHKLVIATKSLLRSAEGVTGHVENSLRKLGTDYLDLYQLHQIAQEKDWAEVTGPSGALEAAMAAKAAGKVRHVGVTSHNLEMALKLVRTGLFDTIQFPFNLIEEGAKDELLGAARDAGMAFICMKPFGGGVIDNAAVAFTYLRSHDGIFPIPGFESCAQVDEVLSFYERDNVVTEQDLAIMEQYRRELGKRFCRRCEYCQPCPQGVMITPAMGYPIVASRMSPAVAAEFCSKAMETVPLCTECGACIARCPYELPISDILKANYAMYRGHVAGSQGGFAGGKSS	not soluble
MGSDKIHHHHHHMKYNPHKYQTYATNFILEHPIAAVFLEMGLGKSVITLTAIFDLCLDSFEIGKVLVIAPLRVARDTWPAEINKWEHLKGLEFSVAIGTKQERLAALRKPASVYLINRENVDWLVNKSGIPFDYDMVVIDELSSFKSYGAKRFKSLLKVRPRAKRIVGLTGTPSSNGLMDLWAEFRILDMGKRLGRYITHYRNSFFTPDKRNQQIVFSYKPLPGAEDAIYQLISDITISMESVDFLKMPECMINEVPVYLNDKEQSVYDRFREEMVLEFADEEIDAMNAAVLSGKLLQMANGAIYDDDKNTHIIHDRKLDALEDLIEGANGKPVLIAYWYNHDLERIKAKFNVREIKTSKDIKDWNNGDISVAVIHPASAGHGLNLQSGGSTLIWFGLTWSLELYQQTNARLWRQGQNETVVIHHIITKGTIDEDVMNALRRKEKTQSDLINAVKANLGKARDAV	not soluble
MGSDKIHHHHHHMLAALKKYLLVPKLMRLSAGAPRDHHIAWDRFWSNVKTTGASGDVLWDSGSDHEMQGYVDRLRLHLDPGLPIVDIGCGNGSFTRQLAGHFPHAVGVDVSAHAVRRARAETAGLANISYAVADMTASGAGSGLLEELAVLDTGGQAGGGANVFIRGVLHVLGERDQHALAENARAITRANGRVFLAETNFRGNAVDYVTHLGATLRSIPAPLEGAIRGLPMPGRFGPKERSLAFPASRWELIEEGPTTIETMPLSNPARSDLIPGYFAVLEGRN	not soluble
MGSDKIHHHHHHMLCSGYLGHDMEDDCDIIIIGAGIAGTACALRCARAGLSVLLLERAEIPGSKNLSGGRLYTHALAELLPQFHLTAPLERRITHESLSLLTPDGVTTFSSLQPGGESWSVLRARFDPWLVAEAEKEGVECIPGATVDALYEENGRVCGVICGDDILRARYVVLAEGANSVLAERHGLVTRPAGEAMALGIKEVLSLETSAIEERFHLENNEGAALLFSGRICDDLPGGAFLYTNQQTLSLGIVCPLSSLTQSRVPASELLTRFKAHPAVRPLIKNTESLEYGAHLVPEGGLHSMPVQYAGNGWLLVGDALRSCVNTGISVRGMDMALTGAQAAAQTLISACQHREPQNLFPLYHHNVERSLLWDVLQRYQHVPALLQRPGWYRTWPALMQDISRDLWDQGDKPVPPLRQLFWHHLRRHGLWHLAGDVIRSLRCL	not soluble
MGSDKIHHHHHHMLDQNQTPLIDGIKACIARPHAAFYTPGHKRGRGIAQPLADLLGEAVFGADLTELANLDNLSAPQGVIQEAQRLAAAAFGAAQTWFLVNGSTCGVEAAIMATCRPGDKIILPRNVHSSAIAGLILSGAIPIFIHPEYDQVLDIAHSMTPEAVKAALQQHPDAKAVLAVYPTYYGVCGDLEAIAQITHQYNIPLLVDEAHGAHFTFHPELPTPALAAGADLTVQSIHKVLGAMTQASMLHIQGDRINAVRVSQALQLLQSTSPSYVLLASLDAARQQMALCGKQLMSRTLQLANEARERISQIPGLSVLQPPTMTPSSGFTTLDKTRLTITVSGLGLTGFAAEEILDEQLGVTAEFATFKHLTFIISLGNTTADIEQLVQGFTTLAETTPPAKALVNPRVNSNLEYFSEISPRDAFFADSETLSIEQARDRICAEIICPYPPGIPVIMPGEVITKPAIEYLQHIQSSGGFITGCADTSLSTLKVLVIGH	not soluble
MGSDKIHHHHHHMLEHGGNLHVASQQYGIAREYWLDLSTGINPQGYPVPEIPASAWHRLPEADPPLERIAASYYGAQRLLVTAGSQAAIQALPRLRQPCRVTVLGPMYAEHAHAWRQQGHQVSEIDYLPSAAMLAETDVLLVCNPNNPTARLLAPSTLLEWHQVLSEHDGWLVVDEAFMDSTPEHSLAAYSHHSGLIILRSLGKFFGLAGARVGFVLAETPLLTRMADLLGPWAVTGPSSIVAQAALADHAWQQHHRAKLLAESRQLADMLRQAGLPARKGCALFQWLKLEHAERLHVQLARQGVWTRHFPALRGVRIGLPSADGWQKLAVALKELQLQDLSD	not soluble
MGSDKIHHHHHHMLGINRKLEQLESDGTIIRVGLVGAGQMGRGMVSQIESMKGMRVVVTADIVLENVKLAYERAGVPKDEVIETDEISKAADAIQAGKVVATGDAELVTALSEVDVVVDATGIPNIGAKIAWDAILNKKHIVMLNVEADVTVGPLLKQMADACGVVYTGSAGDEPGAVMELYDFADALGFEVVALGKGKNNPLNVEANPQTAAEEAKRKGASPKMLASFQDGTKTMVEMTAVANATGFLPDKPGMNGFVGTVEELPAIFRRKEEGGQVENERIVEYINGVAPGVFAIVKSDKEEVNHEMTYLSMGEGPNYVLYRPYHLTSLETPISIARAHLYHEATIAPWQGLQAETVAVAKKDLAAGEFLDSIGGFTVYGTILTVTDAKEKGALPIGLVDAHVQVKRPIKKGEIITYDDVEQKKESTIWRLRRIQDETLVGKRELEAKV	not soluble
MGSDKIHHHHHHMLKGIPHDSPLYEVDEDRGIEYRNCDAIVGFFTIKGDVSDLLPEGLKAYSKPAQGGIWISHYSFSTVGEYHEYLTVIQVEDEQGDMGYYIPYIYVTNDSALAAGRELAGAPKKLANIGLVKELDVVMGYLERPTGKRLVTFVMKPNTRALGGMIDFVLPKPTYLYSVRHLPPIKGKGGVTQLVKWYADIDFHVDPKGERAIFMGPGNITYDSPSVIDPVHKVEIDTLMTALYFQFDMKLGFVDILREY	not soluble
